Literature values as cited in patent US20040014652A1, “Tumor activated prodrug compounds and methods of making and using the same” (priority 2000, published 2004).

Legend:
[1] = human, in vivo
[2] = system: tumors; conditions: mice

Question: With TNFα as the substance, how does the half-life [1] read?
Answer: The half-life was 20 min.

Question: And the “dose required for tumor regression” value [2]?
Answer: The value was “approximately 400 μg/kg”.
